Data on one substance can be found in US20110124012A1.

For test [1], the target named is human B-type natriuretic peptide (human). The test can be described thus: two-step sandwich chemiluminescent immunoassay ([..]); capture 8.1 on microparticles, acridinium-labeled 15C4; BNP at 43.8 pM.
The target is the same in test [2]. Nature of the test: two-step sandwich chemiluminescent immunoassay ([..]); capture 8.1 on microparticles, acridinium-labeled 15C4; BNP at 86.6 pM.
For test [3] the target is unchanged. Nature of the test: two-step sandwich chemiluminescent immunoassay ([..]); capture 8.1 on microparticles, acridinium-labeled 15C4; BNP at 288.7 pM.
Test [4] shares this target. The test can be described thus: two-step sandwich chemiluminescent immunoassay ([..]); capture 8.1 on microparticles, acridinium-labeled 15C4; BNP at 577.4 pM.
Test [5] shares this target. Nature of the test: two-step sandwich chemiluminescent immunoassay ([..]); capture 15F11 on microparticles, acridinium-labeled 15C4; BNP at 43.8 pM.
The target is the same in test [6]. Nature of the test: two-step sandwich chemiluminescent immunoassay ([..]); capture 15F11 on microparticles, acridinium-labeled 15C4; BNP at 86.6 pM.
The target is the same in test [7]. The test can be described thus: two-step sandwich chemiluminescent immunoassay ([..]); capture 15F11 on microparticles, acridinium-labeled 15C4; BNP at 288.7 pM.
Test [8] shares this target. The test can be described thus: two-step sandwich chemiluminescent immunoassay ([..]); capture 15F11 on microparticles, acridinium-labeled 15C4; BNP at 577.4 pM.
Test [9] deals with human pro B-type natriuretic peptide (human). The test can be described thus: two-step sandwich chemiluminescent immunoassay ([..]); capture 8.1 on microparticles, acridinium-labeled 15C4; proBNP at 43.8 pM.
Sequence of human pro B-type natriuretic peptide (human) (chain, as listed by the source): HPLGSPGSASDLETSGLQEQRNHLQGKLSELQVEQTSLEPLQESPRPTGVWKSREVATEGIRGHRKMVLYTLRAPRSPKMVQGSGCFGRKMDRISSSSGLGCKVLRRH
Test [10] shares this target. Nature of the test: two-step sandwich chemiluminescent immunoassay ([..]); capture 8.1 on microparticles, acridinium-labeled 15C4; proBNP at 86.6 pM.
The target is the same in test [11]. Nature of the test: two-step sandwich chemiluminescent immunoassay ([..]); capture 8.1 on microparticles, acridinium-labeled 15C4; proBNP at 288.7 pM.
Test [12] shares this target. Nature of the test: two-step sandwich chemiluminescent immunoassay ([..]); capture 8.1 on microparticles, acridinium-labeled 15C4; proBNP at 577.4 pM.
In test [13] the target is human B-type natriuretic peptide (human). Nature of the test: two-step sandwich chemiluminescent immunoassay ([..]); capture 8.1 on microparticles, acridinium-labeled 15C4; BNP at 0 pM (blank).
The target is the same in test [14]. Nature of the test: two-step sandwich chemiluminescent immunoassay ([..]); capture 15F11 on microparticles, acridinium-labeled 15C4; BNP at 0 pM (blank).
Test [15] concerns the target human N-terminal-pro B-type natriuretic peptide (human). Nature of the test: two-step sandwich chemiluminescent immunoassay ([..]); capture 15F11 on microparticles, acridinium-labeled 15C4; NT-proBNP at 43.8 pM.
For test [16] the target is unchanged. The test can be described thus: two-step sandwich chemiluminescent immunoassay ([..]); capture 15F11 on microparticles, acridinium-labeled 15C4; NT-proBNP at 86.6 pM.
The target of test [17] is human pro B-type natriuretic peptide (human). Nature of the test: two-step sandwich chemiluminescent immunoassay ([..]); capture 8.1 on microparticles, acridinium-labeled 15C4; proBNP at 0 pM (blank).
Test [18] has as its target human N-terminal-pro B-type natriuretic peptide (human). The test can be described thus: two-step sandwich chemiluminescent immunoassay ([..]); capture 15F11 on microparticles, acridinium-labeled 15C4; NT-proBNP at 288.7 pM.
Test [19] shares this target. The test can be described thus: two-step sandwich chemiluminescent immunoassay ([..]); capture 15F11 on microparticles, acridinium-labeled 15C4; NT-proBNP at 577.4 pM.
The target is the same in test [20]. The test can be described thus: two-step sandwich chemiluminescent immunoassay ([..]); capture 15F11 on microparticles, acridinium-labeled 15C4; NT-proBNP at 0 pM (blank).

Sequence of human N-terminal-pro B-type natriuretic peptide (human) (chain, as listed by the source): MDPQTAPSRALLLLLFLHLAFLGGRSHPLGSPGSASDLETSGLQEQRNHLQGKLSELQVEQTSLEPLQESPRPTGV
Sequence of human B-type natriuretic peptide (human) (peptide, as listed by the source): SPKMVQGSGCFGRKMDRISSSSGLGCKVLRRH

Consider monoclonal antibody 15C4, for which the mean rlus in [1] stood at 567 RLU; in [2] it was 713 RLU; in [3], 732 RLU; in [4], 701 RLU; in test [5], 1040 RLU; in test [6] it was 1080 RLU. The mean rlus amounted to 1130 RLU in test [7]; 1140 RLU in [8]; 5480 RLU in test [9]; 12000 RLU in [10]; 43000 RLU in test [11]; 116000 RLU in test [12]. The mean rlus came out at 745 RLU in [13]; 1200 RLU in test [14]; 22400 RLU in [15]; 62700 RLU in test [16]; 659 RLU in test [17]; 317000 RLU in test [18]. In addition, the mean rlus in [19] amounted to 658000 RLU; in test [20], 1140 RLU.
